Earlier results as cited in patent US6726924B2, “Oral liposomal delivery system” (Biozone Laboratories, Inc., priority 1997, dated 2004).

Details: oral; free vs liposomes with ceramides; Regnault et al. 1996

Substance: superoxide dismutase
- bioavailability: 14%
